For the assay, the target named is H-2K^b class I-determinants expressed on LM fibroblasts transduced with pBR327H-2K^b (mouse) (UniProt P01901). The assay can be described thus: flow cytometry staining of LM cells transduced with pBR327H-2K^b, control staining. For orientation: Flow cytometry measures light scatter and fluorescence of single cells or particles in a stream.
Chain of UniProt P01901 (P01901 22-369): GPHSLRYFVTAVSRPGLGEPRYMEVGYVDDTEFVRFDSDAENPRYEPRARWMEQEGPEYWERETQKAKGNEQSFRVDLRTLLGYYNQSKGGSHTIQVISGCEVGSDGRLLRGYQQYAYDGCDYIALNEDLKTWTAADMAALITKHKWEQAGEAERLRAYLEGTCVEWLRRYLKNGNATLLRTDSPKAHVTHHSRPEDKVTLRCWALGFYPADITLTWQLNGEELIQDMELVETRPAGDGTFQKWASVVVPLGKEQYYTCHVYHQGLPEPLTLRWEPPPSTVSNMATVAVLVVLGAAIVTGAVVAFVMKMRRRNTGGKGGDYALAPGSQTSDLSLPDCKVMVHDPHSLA

With isotope control sera (antibody), the mean fluorescence index (MFI) worked out at 0.3.
